In patent publication US9896495 (ZEALAND PHARMA A S, dated 2018):
*1 amine or outer side, *2 acyl side, *3 side chain or, on linkers, in order; H or OH if unused. Side-chain parts run from the residue outwards. [ ]: non-standard residue; d: D form. The star is where a group is joined. C18 diacid = O=C(O)CCCCCCCCCCCCCCCCC(=O)*; γGlu = O=C(O)[C@H](CCC(=O)[*:2])N[*:1]; Ac4c = NC1(C(=O)O)CCC1; Aib = CC(C)(N)C(=O)O

T1: endogenous GLP-1 receptor of a murine insulinoma cell line (murine, UniProt O35659 22-463)
T1 sequence (looked up): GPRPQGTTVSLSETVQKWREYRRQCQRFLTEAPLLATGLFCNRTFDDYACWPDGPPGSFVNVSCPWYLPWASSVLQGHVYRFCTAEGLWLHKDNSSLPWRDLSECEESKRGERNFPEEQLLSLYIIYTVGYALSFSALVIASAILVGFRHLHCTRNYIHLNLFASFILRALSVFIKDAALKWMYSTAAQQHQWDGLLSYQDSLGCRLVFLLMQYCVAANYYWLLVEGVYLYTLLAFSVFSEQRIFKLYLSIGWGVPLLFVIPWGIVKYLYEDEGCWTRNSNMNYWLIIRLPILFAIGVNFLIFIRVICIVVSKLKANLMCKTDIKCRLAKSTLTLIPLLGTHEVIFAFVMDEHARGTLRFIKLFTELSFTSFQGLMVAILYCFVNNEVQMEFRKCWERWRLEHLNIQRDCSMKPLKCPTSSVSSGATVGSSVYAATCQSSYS

B1: H-H-Ac4c-QGTFTSDYSKYLDE-K([17-carboxy-heptadecanoyl]-isoGlu)-AAKDFIEWLESA-NH2 (peptide)
peptide: H-H[Ac4c]QGTFTSDYSKYLDEK([γGlu-C18 diacid])AAKDFIEWLESA-NH2
SMILES: CC[C@H](C)[C@H](NC(=O)[C@H](Cc1ccccc1)NC(=O)[C@H](CC(=O)O)NC(=O)[C@H](CCCCN)NC(=O)[C@H](C)NC(=O)[C@H](C)NC(=O)[C@H](CCCCNC(=O)CC[C@H](NC(=O)CCCCCCCCCCCCCCCCC(=O)O)C(=O)O)NC(=O)[C@H](CCC(=O)O)NC(=O)[C@H](CC(=O)O)NC(=O)[C@H](CC(C)C)NC(=O)[C@H](Cc1ccc(O)cc1)NC(=O)[C@H](CCCCN)NC(=O)[C@H](CO)NC(=O)[C@H](Cc1ccc(O)cc1)NC(=O)[C@H](CC(=O)O)NC(=O)[C@H](CO)NC(=O)[C@@H](NC(=O)[C@H](Cc1ccccc1)NC(=O)[C@@H](NC(=O)CNC(=O)[C@H](CCC(N)=O)NC(=O)C1(NC(=O)[C@@H](N)Cc2c[nH]cn2)CCC1)[C@@H](C)O)[C@@H](C)O)C(=O)N[C@@H](CCC(=O)O)C(=O)N[C@@H](Cc1c[nH]c2ccccc12)C(=O)N[C@@H](CC(C)C)C(=O)N[C@@H](CCC(=O)O)C(=O)N[C@@H](CO)C(=O)N[C@@H](C)C(N)=O
B2: H-H-Ac4c-QGTFTSDYSKYLDERAAKDFIEWLE-K([17-carboxy-heptadecanoyl]-isoGlu-GSGSGG)-A-NH2 (peptide)
peptide: HXQGTFTSDYSKYLDERAAKDFIEWLEKA
modifications: Ac4c at position 2; Lys 28 side chain conjugated to [17-carboxy-heptadecanoyl]-isoGlu-GSGSGG; C-terminal amide
B3: H-H-Aib-QGTFTSDYSKYLD-K([17-carboxy-heptadecanoyl]-isoGlu-GSGSGG)-RAAKDFIEWLESA-NH2 (peptide)
peptide: HXQGTFTSDYSKYLDKRAAKDFIEWLESA
modifications: Aib at position 2; Lys 16 side chain conjugated to [17-carboxy-heptadecanoyl]-isoGlu-GSGSGG; C-terminal amide
B4: H-H-Aib-QGTFTSDYSKYLDS-K([15-carboxy-pentadecanoyl]-isoGlu)-AAHDFVEWLLSA-NH2 (peptide)
peptide: HXQGTFTSDYSKYLDSKAAHDFVEWLLSA
modifications: Aib at position 2; Lys 17 side chain conjugated to [15-carboxy-pentadecanoyl]-isoGlu; C-terminal amide
B5: H-H-Aib-QGTFTSDYSKYLE-K([17-carboxy-heptadecanoyl]-isoGlu-GSGSGG)-RAAKDFIEWLESA-NH2 (peptide)
peptide: HXQGTFTSDYSKYLEKRAAKDFIEWLESA
modifications: Aib at position 2; Lys 16 side chain conjugated to [17-carboxy-heptadecanoyl]-isoGlu-GSGSGG; C-terminal amide
B6: H-H-Aib-QGTFTSDYSKYLDE-K([17-carboxy-heptadecanoyl]-isoGlu)-AAKDFIEWLESA-NH2 (peptide)
peptide: HXQGTFTSDYSKYLDEKAAKDFIEWLESA
modifications: Aib at position 2; Lys 17 side chain conjugated to [17-carboxy-heptadecanoyl]-isoGlu; C-terminal amide

What follows are binders tested against human glucagon receptor (Glucagon-R) (human, UniProt P47871 26-477) (assay: cell-based or functional assay).
human glucagon receptor (Glucagon-R), sequence (P47871 26-477): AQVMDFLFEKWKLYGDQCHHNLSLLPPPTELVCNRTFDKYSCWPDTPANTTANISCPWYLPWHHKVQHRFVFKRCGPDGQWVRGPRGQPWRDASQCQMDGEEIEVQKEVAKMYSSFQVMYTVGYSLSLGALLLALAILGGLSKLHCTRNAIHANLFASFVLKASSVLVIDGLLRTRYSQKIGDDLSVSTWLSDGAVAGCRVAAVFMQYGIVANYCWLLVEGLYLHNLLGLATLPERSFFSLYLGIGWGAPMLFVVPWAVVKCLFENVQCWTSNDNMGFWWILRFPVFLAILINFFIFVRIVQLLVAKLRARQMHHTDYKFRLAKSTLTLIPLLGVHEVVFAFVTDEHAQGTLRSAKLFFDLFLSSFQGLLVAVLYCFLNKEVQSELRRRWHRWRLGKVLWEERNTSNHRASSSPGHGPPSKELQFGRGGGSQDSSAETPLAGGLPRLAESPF
With H-H[Ac4c]QGTFTSDYSKYLDEK([Peg3-Peg3-γGlu-C18 diacid])RAKDFIEWLESA-NH2 [H-H-Ac4c-QGTFTSDYSKYLDE-K([17-carboxy-heptadecanoyl]-isoGlu-Peg3-Peg3)-RAKDFIEWLESA-NH2] the “EC50 hGCGR CHO-K1 [nM] (cAMP, AlphaScreen)” value (“EC50 hGCGR CHO-K1 [nM]” for short) was 0.45 nM. For B1, the “EC50 hGCGR CHO-K1 [nM]” value was 0.28 nM. In the case of B2, the “EC50 hGCGR CHO-K1 [nM]” value is reported as 0.92 nM. B3 was tested, and the “EC50 hGCGR CHO-K1 [nM]” value was 0.18 nM. With B4 the “EC50 hGCGR CHO-K1 [nM]” value was 0.21 nM. With B5 the “EC50 hGCGR CHO-K1 [nM]” value was 0.44 nM. With H-H[Aib]QGTFTSDYSKYLDK([Peg3-Peg3-γGlu-C18 diacid])RAAKDFIEWLESA-NH2 [H-H-Aib-QGTFTSDYSKYLD-K([17-carboxy-heptadecanoyl]-isoGlu-Peg3-Peg3)-RAAKDFIEWLESA-NH2] the “EC50 hGCGR CHO-K1 [nM]” value was 0.13 nM. B6 was tested, and the “EC50 hGCGR CHO-K1 [nM]” value was 1.08 nM.

The binders below were run against human glucagon-like peptide 1 receptor (GLP-1R) (human, UniProt P43220 24-463) (assay: cell-based or functional assay).
For H-H[Ac4c]QGTFTSDYSKYLDEK([Peg3-Peg3-γGlu-C18 diacid])RAKDFIEWLESA-NH2 [H-H-Ac4c-QGTFTSDYSKYLDE-K([17-carboxy-heptadecanoyl]-isoGlu-Peg3-Peg3)-RAKDFIEWLESA-NH2], the “EC50 hGLP-1R CHO-K1 [nM] (cAMP, AlphaScreen)” value (from here on “EC50 hGLP-1R CHO-K1 [nM]”) was 0.7 nM. For B1, the “EC50 hGLP-1R CHO-K1 [nM]” value was 0.56 nM. For B2, the “EC50 hGLP-1R CHO-K1 [nM]” value was 0.61 nM. B3 was tested, and the “EC50 hGLP-1R CHO-K1 [nM]” value was 0.83 nM. For B4, the “EC50 hGLP-1R CHO-K1 [nM]” value was 0.38 nM. With B5 the “EC50 hGLP-1R CHO-K1 [nM]” value was 1.43 nM. In the case of H-H[Aib]QGTFTSDYSKYLDK([Peg3-Peg3-γGlu-C18 diacid])RAAKDFIEWLESA-NH2 [H-H-Aib-QGTFTSDYSKYLD-K([17-carboxy-heptadecanoyl]-isoGlu-Peg3-Peg3)-RAAKDFIEWLESA-NH2], the “EC50 hGLP-1R CHO-K1 [nM]” value is reported as 1.76 nM. B6 was tested, and the “EC50 hGLP-1R CHO-K1 [nM]” value was 0.41 nM.

Each binder was assayed against T1, endogenous GLP-1 receptor of a murine … (assay: cell-based or functional assay).
For H-H[Ac4c]QGTFTSDYSKYLDEK([Peg3-Peg3-γGlu-C18 diacid])RAKDFIEWLESA-NH2 [H-H-Ac4c-QGTFTSDYSKYLDE-K([17-carboxy-heptadecanoyl]-isoGlu-Peg3-Peg3)-RAKDFIEWLESA-NH2], the “EC50 [nM] (cAMP in a murine insulinoma cell line)” value was 0.4 nM. With B1 the “EC50 [nM] (cAMP in a murine insulinoma cell line)” value was 0.72 nM. B2 was tested, and the “EC50 [nM] (cAMP in a murine insulinoma cell line)” value was 0.25 nM. In the case of B3, the “EC50 [nM] (cAMP in a murine insulinoma cell line)” value is reported as 0.65 nM. B4 was tested, and the “EC50 [nM] (cAMP in a murine insulinoma cell line)” value was 0.6 nM. B5 was tested, and the “EC50 [nM] (cAMP in a murine insulinoma cell line)” value was 0.54 nM. With H-H[Aib]QGTFTSDYSKYLDK([Peg3-Peg3-γGlu-C18 diacid])RAAKDFIEWLESA-NH2 [H-H-Aib-QGTFTSDYSKYLD-K([17-carboxy-heptadecanoyl]-isoGlu-Peg3-Peg3)-RAAKDFIEWLESA-NH2] the “EC50 [nM] (cAMP in a murine insulinoma cell line)” value was 0.69 nM. With B6 the “EC50 [nM] (cAMP in a murine insulinoma cell line)” value was 0.6 nM.

The binders below were run against endogenous glucagon receptor of primary rat hepatocytes (rat, UniProt P30082 27-485) (assay: cell-based or functional assay).
endogenous glucagon receptor of primary rat hepatocytes, sequence (P30082 27-485): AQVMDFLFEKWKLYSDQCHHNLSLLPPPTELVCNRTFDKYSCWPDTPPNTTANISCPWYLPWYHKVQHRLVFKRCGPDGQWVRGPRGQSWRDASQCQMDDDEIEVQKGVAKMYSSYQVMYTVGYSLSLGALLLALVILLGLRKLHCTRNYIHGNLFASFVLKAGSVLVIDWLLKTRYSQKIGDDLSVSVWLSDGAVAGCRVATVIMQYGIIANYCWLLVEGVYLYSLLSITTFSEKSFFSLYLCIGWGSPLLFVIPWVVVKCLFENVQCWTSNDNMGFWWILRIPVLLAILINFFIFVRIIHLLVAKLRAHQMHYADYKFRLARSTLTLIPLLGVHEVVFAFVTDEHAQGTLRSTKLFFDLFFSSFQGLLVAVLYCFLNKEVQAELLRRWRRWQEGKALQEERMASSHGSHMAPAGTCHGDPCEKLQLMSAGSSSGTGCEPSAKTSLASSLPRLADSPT
In the case of H-H[Ac4c]QGTFTSDYSKYLDEK([Peg3-Peg3-γGlu-C18 diacid])RAKDFIEWLESA-NH2 [H-H-Ac4c-QGTFTSDYSKYLDE-K([17-carboxy-heptadecanoyl]-isoGlu-Peg3-Peg3)-RAKDFIEWLESA-NH2], the “EC50 [nM] (inhibition of glycogen synthesis rate in primary rat hepatocytes)” value is reported as 1.79 nM. B1 was tested, and the “EC50 [nM] (inhibition of glycogen synthesis rate in primary rat hepatocytes)” value was 0.95 nM. B2 was tested, and the “EC50 [nM] (inhibition of glycogen synthesis rate in primary rat hepatocytes)” value was 3.63 nM. With B3 the “EC50 [nM] (inhibition of glycogen synthesis rate in primary rat hepatocytes)” value was 0.21 nM. With B4 the “EC50 [nM] (inhibition of glycogen synthesis rate in primary rat hepatocytes)” value was 0.85 nM. With B5 the “EC50 [nM] (inhibition of glycogen synthesis rate in primary rat hepatocytes)” value was 0.8 nM. For H-H[Aib]QGTFTSDYSKYLDK([Peg3-Peg3-γGlu-C18 diacid])RAAKDFIEWLESA-NH2 [H-H-Aib-QGTFTSDYSKYLD-K([17-carboxy-heptadecanoyl]-isoGlu-Peg3-Peg3)-RAAKDFIEWLESA-NH2], the “EC50 [nM] (inhibition of glycogen synthesis rate in primary rat hepatocytes)” value was 0.11 nM. B6 was tested, and the “EC50 [nM] (inhibition of glycogen synthesis rate in primary rat hepatocytes)” value was 1.53 nM.
